Publication doi:10.1101/2025.05.26.656162

Target: Sam68 N-terminal region (human, UniProt Q07666 1-96)
Assay: single-molecule nanoaperture optical tweezers

Sam68 N-terminal region, sequence (Q07666 1-96): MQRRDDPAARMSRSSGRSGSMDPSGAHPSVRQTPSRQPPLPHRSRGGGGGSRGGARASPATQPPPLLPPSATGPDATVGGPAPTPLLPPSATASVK

B1: G8.5 RNA (ssRNA)
RNA: GGGUGACACACUAGCUAUAGCAUUAAAAGACCGAGCAAGU
Q: For B1, which Kd is on record?
A: ~8 µM
